From US20250090677A1 (MULTITUDE THERAPEUTICS, published 2025)

Columns and labels:
Human CDH6-ECD-His [1] = target: T1, Human CDH6-ECD-His (human, UniProt P55285 54-615); experiment: ELISA, antigen coated at 1 ug/mL
T1 construct: extracellular domain; Bought protein; also called human CDH6-ECD-His recombinant protein; Human CDH6-EC6D-His; not shown: His tag
T1 sequence (looked up): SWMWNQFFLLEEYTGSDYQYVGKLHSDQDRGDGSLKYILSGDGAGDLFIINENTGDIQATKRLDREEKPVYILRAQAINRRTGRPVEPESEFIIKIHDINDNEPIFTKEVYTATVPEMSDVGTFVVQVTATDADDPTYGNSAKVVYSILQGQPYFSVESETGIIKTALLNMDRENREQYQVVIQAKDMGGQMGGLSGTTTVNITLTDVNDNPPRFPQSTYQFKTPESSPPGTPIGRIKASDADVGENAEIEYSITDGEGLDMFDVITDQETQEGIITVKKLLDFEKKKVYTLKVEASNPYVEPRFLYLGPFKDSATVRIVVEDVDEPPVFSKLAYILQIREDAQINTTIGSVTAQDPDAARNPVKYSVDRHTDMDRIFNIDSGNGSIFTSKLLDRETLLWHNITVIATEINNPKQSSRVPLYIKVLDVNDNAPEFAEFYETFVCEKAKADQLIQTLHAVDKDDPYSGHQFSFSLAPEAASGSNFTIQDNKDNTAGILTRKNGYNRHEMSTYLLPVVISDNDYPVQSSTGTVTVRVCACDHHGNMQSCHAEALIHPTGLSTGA
Procedure: (§1) CDH9 and […] are the most closely related family members to CDH6. Binding of CL069707-H1L1 on human CDH6, CDH9 and CDH10 ECD domains were analyzed by ELISA Binding Assay. Human […], CDH9-ECD-His and CDH10-ECD-His antigens were obtained from Acro Biosystems, Inc. 100 μL of 1 μg/mL of the antigens diluted in PBS were added to 96 well plates and incubated in 4° C. overnight. The plates were washed 3 times with 300 μL of washing buffer. Then 100 μL/well of 1% BSA blocking reagent were added to the plates, and incubated at 37° C. for 1 h then the blocking reagent were discarded. A 3-fold serial dilution of CL069707-H1L1 was added to the plates and then incubated at 37° C. for 1 h. Then the plates were washed 3 times with 300 μL of washing buffer. 100 μL/well of HRP-conjugated anti-Human antibody diluted in 1% BSA were added to the plates and then incubated at 37° C. for 1 h. The plates were washed 3 times with 300 μL of washing buffer. 100 μL/well of TMB substrate were added to the plates and incubated for about 10 min in room temperature. Then the reaction was stopped with 100 μL/well of stopping solution. OD450 was read with a plate reader and the data were processed.

Human CDH6-ECD-His [2] = target: T1, Human CDH6-ECD-His; experiment: BLI (Octet), antibody on AHC sensor, antigen 3.13-100 nM, 1:1 model
Procedure: (§2) Binding affinities of CL069707-H1L1 and Ch069707 were measured using the Octet® system based on Bio-Layer Interferometry (BLI) technique. Antibodies were loaded to AHC (Anti-hIgG Fc Capture) at 100 nM concentration. […] From the six different binding curves obtained from each antigen concentration, binding constants (KD) were calculated based on the 1:1 binding model. CL069707-H1L1 and Ch069707 binds to human CDH6-ECD-His antigen with similar affinity. CL069707-H1L1 binds to human CDH6-ECD-His and cyno monkey CDH6-ECD-His antigens with similar affinity.

cyno monkey CDH6-ECD-His = target: T2, cyno monkey CDH6-ECD-His (cyno monkey, UniProt A0A2K5TW62 54-615); experiment: as above
T2 construct: extracellular domain; Bought protein; also called Cyno CDH6-ECD-His; not shown: His tag
T2 sequence: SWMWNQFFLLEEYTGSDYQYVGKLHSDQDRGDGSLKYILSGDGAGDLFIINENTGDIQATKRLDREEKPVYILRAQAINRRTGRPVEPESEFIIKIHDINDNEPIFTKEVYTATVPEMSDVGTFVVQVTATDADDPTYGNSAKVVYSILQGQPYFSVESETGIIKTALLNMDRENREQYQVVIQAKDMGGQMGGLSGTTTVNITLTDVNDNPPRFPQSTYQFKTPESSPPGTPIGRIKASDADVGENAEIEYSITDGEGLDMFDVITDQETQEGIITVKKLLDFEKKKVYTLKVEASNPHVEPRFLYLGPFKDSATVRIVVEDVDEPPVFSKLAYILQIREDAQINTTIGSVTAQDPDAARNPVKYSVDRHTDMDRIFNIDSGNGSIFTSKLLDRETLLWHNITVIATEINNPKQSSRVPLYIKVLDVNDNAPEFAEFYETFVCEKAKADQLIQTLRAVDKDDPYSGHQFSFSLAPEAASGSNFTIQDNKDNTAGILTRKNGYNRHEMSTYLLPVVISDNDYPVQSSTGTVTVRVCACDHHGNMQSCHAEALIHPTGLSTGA
Procedure: as §2

human CDH9-ECD-His = target: T3, human CDH9-ECD-His (human, UniProt Q9ULB4 54-615); experiment: ELISA, antigen coated at 1 ug/mL, 3-fold dilutions of CL069707-H1L1, HRP anti-human antibody, OD450
T3 construct: extracellular domain; Bought protein; also called CDH9-ECD-His protein; not shown: His tag
T3 sequence (looked up): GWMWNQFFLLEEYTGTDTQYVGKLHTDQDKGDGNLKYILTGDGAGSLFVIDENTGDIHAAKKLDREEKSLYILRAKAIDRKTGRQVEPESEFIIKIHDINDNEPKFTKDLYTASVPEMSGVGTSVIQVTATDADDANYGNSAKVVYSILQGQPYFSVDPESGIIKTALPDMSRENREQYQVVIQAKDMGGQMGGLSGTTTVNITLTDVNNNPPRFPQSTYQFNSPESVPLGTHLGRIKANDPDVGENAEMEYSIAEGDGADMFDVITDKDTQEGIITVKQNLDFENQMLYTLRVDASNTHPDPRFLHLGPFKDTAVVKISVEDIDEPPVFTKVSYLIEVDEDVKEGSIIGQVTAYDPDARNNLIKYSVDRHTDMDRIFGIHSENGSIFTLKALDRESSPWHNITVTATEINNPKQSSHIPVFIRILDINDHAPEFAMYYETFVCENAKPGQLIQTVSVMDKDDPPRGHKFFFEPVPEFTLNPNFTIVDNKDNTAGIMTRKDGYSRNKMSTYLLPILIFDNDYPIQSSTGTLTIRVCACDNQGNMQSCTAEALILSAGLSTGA
Procedure: as §1

EC50 (Human CDH6-ECD-His [1]): 0.1 nM | Kd (Human CDH6-ECD-His [2]): 3.08 nM | Kd (cyno monkey CDH6-ECD-His): 2.69 nM | binding result (human CDH9-ECD-His): no binding (tested: 100 nM)
B1: CL069707-H1L1 (antibody, human IgG1, kappa, V domains shown)
VH: EVQLVESGGGLVQPGGSLRLSCAASGFTFTTYAMNWVRQAPGKGLEWVARIRIKNNNYATYYADSVTDRFTISRDDSKNSLYLQMNSLKTEDTAVYYCVRPDYGNYGLAYWGQGTLVTVSS
VL: DIQLTQSPSSLSASVGDRVTITCSASSSISSHYLHWYQQKPGKSPKLLIYRSFYLASGVPSRFSGSGSGTDFTLTISSLQPEDFATYYCQQDIVPLTFGQGTKLEIKR
notes: Humanized IgG1/kappa, produced in 293 cells; also called humanized CL069707-H1L1
